Assays:
[1] = biological target: T1, MBP-SRA-RING DNA^mut (G448D) (human, UniProt Q96T88 405-793, G448D); assay: pull-down; as a2 with SRA-RING DNA^mut in the presence of 5 uM DNA; conditions: both partners purified
T1 construct: human UHRF1 SRA-RING, amino acids 405-793, with G448D (DNA^mut); source: E. coli, purified as described for UHRF1
T1 sequence (looked up): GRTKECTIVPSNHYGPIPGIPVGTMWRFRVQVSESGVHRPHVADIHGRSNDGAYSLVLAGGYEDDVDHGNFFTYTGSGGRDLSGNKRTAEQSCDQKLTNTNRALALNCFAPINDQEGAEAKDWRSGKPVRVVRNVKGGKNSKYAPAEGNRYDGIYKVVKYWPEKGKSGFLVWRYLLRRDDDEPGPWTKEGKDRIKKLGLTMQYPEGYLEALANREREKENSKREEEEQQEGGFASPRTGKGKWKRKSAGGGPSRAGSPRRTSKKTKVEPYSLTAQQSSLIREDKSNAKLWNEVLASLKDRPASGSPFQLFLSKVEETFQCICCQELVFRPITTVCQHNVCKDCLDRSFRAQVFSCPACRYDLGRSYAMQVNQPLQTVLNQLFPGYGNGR

[2] = biological target: T2, His-MBP-tagged UHRF1 SRA-RING (amino acids 405-793) (human, UniProt Q96T88 405-793); assay: pull-down; proteins each at 1 uM incubated overnight at 4 C with MBP magnetic beads in 50 mM Tris-HCl pH 8.0, 100 mM NaCl, 0.1% NP-40, 0.5% BSA; blot with GST antibody; also done with 25 uM H3_(1-20)K9me2 peptide, which did not inhibit; conditions: both partners purified
T2 construct: human UHRF1 SRA-RING, amino acids 405-793; also called MBP-SRA-RING; source: E. coli, purified as described for UHRF1
T2 sequence (looked up): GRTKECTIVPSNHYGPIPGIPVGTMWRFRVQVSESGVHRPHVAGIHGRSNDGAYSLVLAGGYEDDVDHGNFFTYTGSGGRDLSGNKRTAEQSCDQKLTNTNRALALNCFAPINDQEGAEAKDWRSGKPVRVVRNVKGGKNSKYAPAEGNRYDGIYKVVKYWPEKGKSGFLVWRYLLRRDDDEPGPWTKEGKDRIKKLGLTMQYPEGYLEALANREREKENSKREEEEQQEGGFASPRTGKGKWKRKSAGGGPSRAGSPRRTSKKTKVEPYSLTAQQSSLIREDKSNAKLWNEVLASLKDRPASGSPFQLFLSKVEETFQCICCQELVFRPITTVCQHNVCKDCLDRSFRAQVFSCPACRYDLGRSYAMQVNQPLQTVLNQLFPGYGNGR

binding result [1]: binds
binding result [2]: binds
B1: GST-tagged UHRF1 TTD-PHD (amino acids 123-366) (domain or fragment, human, UniProt Q96T88 123-366, looked up)
chain: DEDMWDETELGLYKVNEYVDARDTNMGAWFEAQVVRVTRKAPSRDEPCSSTSRPALEEDVIYHVKYDDYPENGVVQMNSRDVRARARTIIKWQDLEVGQVVMLNYNPDNPKERGFWYDAEISRKRETRTARELYANVVLGDDSLNDCRIIFVDEVFKIERPGEGSPMVDNPMRRKSGPSCKHCKDDVNRLCRVCACHLCGGRQDPDKQLMCDECDMAFHIYCLDPPLSSVPSEDEWYCPECRND
notes: human UHRF1 linked tandem Tudor domain and plant homeodomain (TTD-PHD), amino acids 123-366; also called GST-TTD-PHD; source: produced as previously described (Rothbart et al., 2013)

Source: PMC5012860, “Hemi-methylated DNA regulates DNA methylation inheritance through allosteric activation of H3 ubiquitylation by UHRF1” (eLife, 2016)
